Patent publication US20190367631A1 (Regeneron, published 2019)

T1: human MSR1 extracellular domain expressed with a N-terminal nonahistidine tag (His9-hMSR1); R&D Systems, Cat … (human, UniProt P21757 77-451)
T1 construct: extracellular domain; Bought reagent; also called His-hMSR1; 9xHis-hMSR1
T1 sequence: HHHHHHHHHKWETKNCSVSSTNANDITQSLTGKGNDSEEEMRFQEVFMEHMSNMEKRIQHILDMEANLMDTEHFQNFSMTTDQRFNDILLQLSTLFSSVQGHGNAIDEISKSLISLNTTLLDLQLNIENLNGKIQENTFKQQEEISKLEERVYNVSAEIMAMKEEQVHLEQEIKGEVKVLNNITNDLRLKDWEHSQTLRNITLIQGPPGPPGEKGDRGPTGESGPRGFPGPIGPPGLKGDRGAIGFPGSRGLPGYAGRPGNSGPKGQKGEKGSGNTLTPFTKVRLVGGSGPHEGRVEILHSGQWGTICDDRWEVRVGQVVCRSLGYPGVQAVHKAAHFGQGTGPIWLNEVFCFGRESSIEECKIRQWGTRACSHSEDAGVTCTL

B1: H1H27729P-N297Q (antibody, human IgG1, V domains shown)
VH: QVQLVESGGGLVKPGGSLRLSCAASGFIFSDYYMSWIRQAPGKGLEWVSYISSSGTTIYGDSVKGRFTMSRDNAKNSLYLQMNSLRAEDTAVYYCARNYALFDYWGQGTLVTVSS
VL: DIQMTQSPSSLSASVGDRVTITCQASQDISKYLNWYQQKPGKAPKLLIYYTSNLETGVPSRFSGSGSGTDFTFTISSLQPEDIATYYCHQSDYLPFTFGPGTKVDIKR
notes: human IgG1 Fc with N297Q (EU)
B2: H1H27729P-N297Q-LP1 (antibody, human IgG1, V domains shown)
VH: QVQLVESGGGLVKPGGSLRLSCAASGFIFSDYYMSWIRQAPGKGLEWVSYISSSGTTIYGDSVKGRFTMSRDNAKNSLYLQMNSLRAEDTAVYYCARNYALFDYWGQGTLVTVSS
VL: DIQMTQSPSSLSASVGDRVTITCQASQDISKYLNWYQQKPGKAPKLLIYYTSNLETGVPSRFSGSGSGTDFTFTISSLQPEDIATYYCHQSDYLPFTFGPGTKVDIKR
modifications: LXR agonist linker-payload LP1 clicked to azido-PEG3-amine on Q295 and Q297 (EU) of the heavy chain constant region
notes: antibody-drug conjugate; human IgG1 Fc with N297Q (EU); also called H1H27729P-LP1
B3: H1H27731P-N297Q (antibody, V domains shown)
VH: QLQLQESGPGLVKPSETLSLTCTVSGGSISRISYYWGWIRQPPGKGLEWIGSIYDSGSTYYNPSLKSRVTISIDTSKNQFSLKLSSVTAADTAVYYCVRYSSSSAFAFDYWGQGTLVTVSS
VL: DIQMTQSPSSVSASVGDRVTITCRASQGISSWLAWYQQKPGKAPKLLIYAASSLQSGVPSRFSGSGSGTDFTLTISSLQPEDFATYYCQQANSFPFTFGPGTKVDIKR
notes: human IgG1 Fc with N297Q (EU)
B4: H1H27734P-N297Q (antibody, human IgG1, V domains shown)
VH: EVQLVESRGGLVQPGGSLRLSCAASGFTFSSYAMSWVRQAPGKGLEWVSAISGSGGSTFYADSVKGRFTISRDNSKNTVYLQMNSLRAEDTAVYYCAKALVLRFLEWLGDYWGQGTLVTVSS
VL: DIQMTQSPSTLSASVGDRVTITCRASQSISSWLAWFQQKPGKAPKLLIYKASSLESGVPSRFSGSGSGTEFTLTISSLQPDDFATYYCQQYKSYWTFGQGTKVEIKR
notes: human IgG1 Fc with N297Q (EU)
B5: H1H27734P-N297Q-LP1 (antibody, human IgG1, V domains shown)
VH: EVQLVESRGGLVQPGGSLRLSCAASGFTFSSYAMSWVRQAPGKGLEWVSAISGSGGSTFYADSVKGRFTISRDNSKNTVYLQMNSLRAEDTAVYYCAKALVLRFLEWLGDYWGQGTLVTVSS
VL: DIQMTQSPSTLSASVGDRVTITCRASQSISSWLAWFQQKPGKAPKLLIYKASSLESGVPSRFSGSGSGTEFTLTISSLQPDDFATYYCQQYKSYWTFGQGTKVEIKR
modifications: LXR agonist linker-payload LP1 clicked to azido-PEG3-amine on Q295 and Q297 (EU) of the heavy chain constant region
notes: antibody-drug conjugate; human IgG1 Fc with N297Q (EU); also called H1H27734P-LP1
B6: H1H27739P-N297Q (antibody, human IgG1, V domains shown)
VH: EVQLVESGGGLVQPGGSLRLSCTASGFTFSSYAMSWVRQAPGKGLEWVSAISGTGSSTYFTDSVKGRFAISRDNSKNTLYLQMNSLRAEDTAVYYCAKDGEWLSTVTLFDYWGQGTLVTVSS
VL: EIVMTQSPATLSVSPGERATLSCRASQSVSSNLAWYQQKPGQAPRLLIYGASTRATGIPARFSGSGSGTDFTLTISSLQSEDFALYYCQQYFIWPPHPTFGPGTKVDIKR
notes: human IgG1 Fc with N297Q (EU)
B7: H1H27739P-N297Q-LP1 (antibody, human IgG1, V domains shown)
VH: EVQLVESGGGLVQPGGSLRLSCTASGFTFSSYAMSWVRQAPGKGLEWVSAISGTGSSTYFTDSVKGRFAISRDNSKNTLYLQMNSLRAEDTAVYYCAKDGEWLSTVTLFDYWGQGTLVTVSS
VL: EIVMTQSPATLSVSPGERATLSCRASQSVSSNLAWYQQKPGQAPRLLIYGASTRATGIPARFSGSGSGTDFTLTISSLQSEDFALYYCQQYFIWPPHPTFGPGTKVDIKR
modifications: LXR agonist linker-payload LP1 clicked to azido-PEG3-amine on Q295 and Q297 (EU) of the heavy chain constant region
notes: antibody-drug conjugate; human IgG1 Fc with N297Q (EU); also called H1H27739P-LP1
B8: H1H27747P-N297Q-LP1 (antibody, human IgG1, V domains shown)
VH: QVQLVESGGAVVQPGRSLRLSCAASGFTFSYYGMHWVRQAPGKGLEWVAVISYDGSKKYYADSVKGRFTISRDNSKNTLYLQMNSLRAEDTAVYYCAKDLTVDFYYGMDVWGQGTTVTVSS
VL: DIQMTQSPSSVSASVGDRVTITCRASQGISSWLAWYQQKPGKAPKLLIYATSSLQSGAPSRFSGSGSGTDFTLTISSLQPEDFATYFCQQANSFPYTFGQGTKLEIKR
modifications: LXR agonist linker-payload LP1 clicked to azido-PEG3-amine on Q295 and Q297 (EU) of the heavy chain constant region
notes: antibody-drug conjugate; human IgG1 Fc with N297Q (EU); also called H1H27747P-LP1
B9: H1H27749P-N297Q-LP1 (antibody, human IgG1, V domains shown)
VH: QVQLQESGPGLVKPSETLSLTCTVSDGSISSYYWSWIRQPPGRGLEWIGFIYYSGSTSYNPSLKSRVTISVDTSMSQFSLKLRSVTAADTAVYYCARGSPFDYWGPGTLVTVSS
VL: EIVLTQSPGTLSLSPGERATLSCRASQSVSSSYLAWYQQRPGQAPSLLISGASRRATGIPDRFSGSGSGTDFTLTIRRLEPEDFAMYYCQQYGSSPPTFGGGTKVEIKR
modifications: LXR agonist linker-payload LP1 clicked to azido-PEG3-amine on Q295 and Q297 (EU) of the heavy chain constant region
notes: antibody-drug conjugate; human IgG1 Fc with N297Q (EU); also called H1H27749P-LP1
B10: H1H27751P-N297Q (antibody, human IgG1, V domains shown)
VH: EVQLVESGGGLVQPGGSLRLSCAASGFTFSNYAMHWVRQAPGKGLEYVSAISSNGGSTYYADSVKGRITISRDNSKNTLYLQMGSLRAEDMAVYYCARGRPYYYYFGMDVWGQGTTVTVSS
VL: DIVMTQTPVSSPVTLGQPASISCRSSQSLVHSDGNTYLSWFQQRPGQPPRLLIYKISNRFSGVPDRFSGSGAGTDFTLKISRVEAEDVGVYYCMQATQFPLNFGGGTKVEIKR
notes: human IgG1 Fc with N297Q (EU)
B11: H1H27751P-N297Q-LP1 (antibody, human IgG1, V domains shown)
VH: EVQLVESGGGLVQPGGSLRLSCAASGFTFSNYAMHWVRQAPGKGLEYVSAISSNGGSTYYADSVKGRITISRDNSKNTLYLQMGSLRAEDMAVYYCARGRPYYYYFGMDVWGQGTTVTVSS
VL: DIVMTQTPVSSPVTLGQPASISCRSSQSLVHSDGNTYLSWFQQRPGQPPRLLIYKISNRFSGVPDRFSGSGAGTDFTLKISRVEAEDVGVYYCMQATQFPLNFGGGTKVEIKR
modifications: LXR agonist linker-payload LP1 clicked to azido-PEG3-amine on Q295 and Q297 (EU) of the heavy chain constant region
notes: antibody-drug conjugate; human IgG1 Fc with N297Q (EU)
B12: H1H27756P-N297Q (antibody, human IgG1, V domains shown)
VH: QVQLVESGGGVVQPGRSLRLSCAASGFTFSNYDMHWVRQAPGKGLEWMAVISYDGINKYYADSVKGRFTISRDNSKNTLYLQMNSLRAEDTAVYYCAKGTYSWYFDLWGRGTLVTVSS
VL: not shown
notes: human IgG1 Fc with N297Q (EU)
B13: H1H27756P-N297Q-LP1 (antibody, human IgG1, V domains shown)
VH: QVQLVESGGGVVQPGRSLRLSCAASGFTFSNYDMHWVRQAPGKGLEWMAVISYDGINKYYADSVKGRFTISRDNSKNTLYLQMNSLRAEDTAVYYCAKGTYSWYFDLWGRGTLVTVSS
VL: not shown
modifications: LXR agonist linker-payload LP1 clicked to azido-PEG3-amine on Q295 and Q297 (EU) of the heavy chain constant region
notes: antibody-drug conjugate; human IgG1 Fc with N297Q (EU); also called H1H27756P-LP1
B14: H1H27759P-N297Q (antibody, human IgG1, V domains shown)
VH: EVQLVESGGGFVQPGGSLRLSCAASGFTFSSYAMSWVRQAPGKGLEWVSAISGTGSNTYYADSVKGRFTISRDNSKNTLYLQMNSLRAEDTAVYYCAKDRVTTVTYYFDYWGQGTLVTVSS
VL: not shown
notes: human IgG1 Fc with N297Q (EU); also called H1H27759P2-N297Q
B15: H1H27759P-N297Q-LP1 (antibody, human IgG1, V domains shown)
VH: EVQLVESGGGFVQPGGSLRLSCAASGFTFSSYAMSWVRQAPGKGLEWVSAISGTGSNTYYADSVKGRFTISRDNSKNTLYLQMNSLRAEDTAVYYCAKDRVTTVTYYFDYWGQGTLVTVSS
VL: not shown
modifications: LXR agonist linker-payload LP1 clicked to azido-PEG3-amine on Q295 and Q297 (EU) of the heavy chain constant region
notes: as for B11
B16: H1H27760P-N297Q (antibody, human IgG1, V domains shown)
VH: EVQLVESGGGLVQPGRSLRLSCAASGFTFDAYAMHWVRQAPGKGLEWVSGISWNSGSIGYADSVKGRFTISRDNAKNSLYLQMNSLREEDTALYYCAKDKILELYYYGMDVWGQGTTVTVSS
VL: not shown
notes: human IgG1 Fc with N297Q (EU); also called H1H27760P2-N297Q

Molecular target: T1, human MSR1 extracellular domain …
Test: SPR Biacore T200, 25 C, antibody captured by anti-human Fc, His9-hMSR1 injected;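 further: running buffer HBS-ET pH 7.4, rates from sensorgrams fitted to a 1:1 model including mass transport limitation, KD and half-life derived from the kinetic constants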

Binder | Kd [nM] | koff [s⁻¹] | kon [M⁻¹ s⁻¹] | t½ [min]
B1 | 8.67 | 0.000906 | 105000 | 12.8
B2 | 13.1 | 0.000718 | 54700 | 16.1
B3 | ≤ 0.0855 | ≤ 1e-05 | 117000 | 1160
B4 | 7.72 | 0.000596 | 77200 | 19.4
B5 | 6.49 | 0.000449 | 69300 | 25.7
B6 | 4.68 | 0.000555 | 119000 | 20.8
B7 | 8.14 | 0.000722 | 88800 | 16
B8 | 1.49 | 0.000203 | 136000 | 56.9
B9 |  |  | 140000 | 
B10 | 0.833 | 0.000175 | 210000 | 66.1
B11 | 0.664 | 0.000152 | 229000 | 76.1
B12 | 1.65 |  |  | 97.4
B13 | 1.76 | 0.00011 | 62700 | 105
B14 | 4.23 | 0.000435 | 103000 | 26.6
B15 | 4.57 | 0.000595 | 130000 | 19.4
B16 | 1.66 |  |  | 30.2
